According to patent publication US20220403022A1 (Merck KGaA, published 2022):
Several values for one entry are separate records, joined by “and”; a condition that tells them apart may be missing. Equal entries are not always repeated.

Legend:
[1] = target: T1, human TIGIT ECD expressed on the CHO-S cell surface (human, UniProt Q495A1 22-141); experiment: flow cytometry blocking assay on CHO-S-human TIGIT cells, competitor biotinylated human CD112-Fc 2 µg/mL
T1 construct: sections 3.13 and 4.1 say only stably expressing human TIGIT; also called CHO-S-hTIGIT; CHO-S-huTIGIT
T1 sequence: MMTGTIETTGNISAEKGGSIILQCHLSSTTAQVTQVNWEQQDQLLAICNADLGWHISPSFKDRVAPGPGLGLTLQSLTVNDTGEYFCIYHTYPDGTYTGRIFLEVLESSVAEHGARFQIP

[2] = target: T2, human TIGIT on cells (primary T cells, transfected HEK293 cells, Jurkat reporter cells, NK cells) (human, UniProt Q495A1 22-244); experiment: cell-based or functional assay
T2 sequence: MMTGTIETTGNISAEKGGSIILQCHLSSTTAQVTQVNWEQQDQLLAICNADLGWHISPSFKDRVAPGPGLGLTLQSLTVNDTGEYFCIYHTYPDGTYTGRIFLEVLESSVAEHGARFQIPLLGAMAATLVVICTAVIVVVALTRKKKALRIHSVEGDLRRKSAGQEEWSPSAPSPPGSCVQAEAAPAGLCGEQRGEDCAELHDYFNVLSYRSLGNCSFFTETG

[3] = target: T1, human TIGIT ECD expressed on the CHO-S …; experiment: cell-based or functional assay
[4] = target: T3, cynomolgus monkey TIGIT on primary T cells (cynomolgus monkey, UniProt A0A7N9I9V4 89-312); experiment: target occupancy on CD3+ T cells of cynomolgus monkey spleen cells, unoccupied TIGIT detected with biotinylated 3963H03-12, flow cytometry, 6 donors
T3 construct: whole, on cells; also called cyno PBMCs; cynomolgus monkey spleen cells
T3 sequence (A0A7N9I9V4 entry or part of it): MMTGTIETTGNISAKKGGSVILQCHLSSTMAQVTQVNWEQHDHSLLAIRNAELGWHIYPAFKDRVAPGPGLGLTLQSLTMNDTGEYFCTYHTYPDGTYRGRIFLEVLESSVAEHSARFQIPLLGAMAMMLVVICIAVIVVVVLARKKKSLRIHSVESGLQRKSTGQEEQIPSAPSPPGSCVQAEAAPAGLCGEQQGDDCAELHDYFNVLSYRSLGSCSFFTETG

[5] = target: T2, human TIGIT on cells (primary T cells, …); experiment: flow cytometry on CD3+ T cells of human PBMCs
[6] = target: T1, human TIGIT ECD expressed on the CHO-S …; experiment: flow cytometry blocking assay on CHO-S-hTIGIT cells, competitor muCD112; competitor muCD112; human IgG 3963H03-12
[7] = target: T4, His-tagged cynomolgus monkey TIGIT (cynomolgus monkey, UniProt A0A7N9I9V4 89-209); experiment: SPR Biacore, antibody captured on anti-human Fc, His-tagged TIGIT injected
T4 construct: also called Cyno TIGIT; cynomolgus monkey TIGIT (Novoprotein cat. No. CP02)
T4 sequence (A0A7N9I9V4 entry or part of it): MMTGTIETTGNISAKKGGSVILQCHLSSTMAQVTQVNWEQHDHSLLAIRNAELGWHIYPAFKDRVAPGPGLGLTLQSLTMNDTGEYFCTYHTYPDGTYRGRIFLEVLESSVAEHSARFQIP

His-tagged human TIGIT = target: T5, His-tagged human TIGIT (human, UniProt Q495A1 22-141); experiment: as above
T5 construct: soluble analyte in SPR
T5 sequence: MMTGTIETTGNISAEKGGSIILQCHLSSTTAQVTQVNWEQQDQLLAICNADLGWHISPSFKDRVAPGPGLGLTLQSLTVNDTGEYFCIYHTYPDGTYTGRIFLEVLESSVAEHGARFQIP

[8] = target: T2, human TIGIT on cells (primary T cells, …); experiment: target occupancy on CD3+ T cells in human whole blood, unoccupied TIGIT detected with biotinylated 3963H03-12, flow cytometry, 9 donors
[9] = target: T1, human TIGIT ECD expressed on the CHO-S …; experiment: flow cytometry blocking assay on CHO-S-hTIGIT cells, competitor muCD155-Fc; competitor muCD155-Fc; human IgG 3963H03-12
[10] = target: T3, cynomolgus monkey TIGIT on primary T …; experiment: flow cytometry on CD3+ T cells of cyno PBMCs
[11] = target: T2, human TIGIT on cells (primary T cells, …); experiment: flow cytometry, live transfected HEK293 cells
human TIGIT ECD Y113A = target: T6, human TIGIT ECD Y113A (human, UniProt Q495A1 22-141); experiment: SPR, antibody captured, mutant TIGIT ECD injected
T6 construct: point mutant expressed in E. coli
T6 chain: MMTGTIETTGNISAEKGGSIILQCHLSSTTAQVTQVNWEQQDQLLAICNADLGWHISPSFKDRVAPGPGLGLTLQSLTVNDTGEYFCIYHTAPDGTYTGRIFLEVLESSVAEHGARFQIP

human TIGIT ECD T55A = target: T7, human TIGIT ECD T55A (human, UniProt Q495A1 22-141); experiment: SPR, antibody captured, mutant TIGIT ECD injected
T7 construct: point mutant expressed in E. coli
T7 chain: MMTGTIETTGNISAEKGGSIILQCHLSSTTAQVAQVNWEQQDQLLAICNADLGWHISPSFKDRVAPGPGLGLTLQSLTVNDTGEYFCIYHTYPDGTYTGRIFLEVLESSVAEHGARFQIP

human TIGIT ECD Q53A = target: T8, human TIGIT ECD Q53A (human, UniProt Q495A1 22-141); experiment: SPR, antibody captured, mutant TIGIT ECD injected
T8 construct: point mutant expressed in E. coli
T8 chain: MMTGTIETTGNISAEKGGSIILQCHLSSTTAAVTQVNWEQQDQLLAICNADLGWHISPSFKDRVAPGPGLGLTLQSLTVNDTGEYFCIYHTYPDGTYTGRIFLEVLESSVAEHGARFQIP

human TIGIT ECD P114G = target: T9, human TIGIT ECD P114G (human, UniProt Q495A1 22-141); experiment: SPR, antibody captured, mutant TIGIT ECD injected
T9 construct: point mutant expressed in E. coli
T9 chain: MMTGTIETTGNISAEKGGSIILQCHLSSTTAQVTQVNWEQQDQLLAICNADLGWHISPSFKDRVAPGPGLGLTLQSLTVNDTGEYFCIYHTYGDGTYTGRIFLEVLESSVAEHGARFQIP

[12] = target: T1, human TIGIT ECD expressed on the CHO-S …; experiment: flow cytometry blocking assay on CHO-S-human TIGIT cells, competitor biotinylated human CD155-Fc 2 µg/mL

B1: 3963H03-12 (antibody, human IgG1, kappa, V domains shown)
VH: QVQLVQSGSELKKPGASVKVSCKASGYTFTSYPMNWVRQAPGQGLEWMGWINTNTGNPTYAQGFTGRFVFSLDTSVSTAYLQISSLKAEDTAVYYCARVGGYSVDEYAFDVWGQGTLVTVSS
VL: DIQLTQSPSFLSASVGDRVTITCRASQGISSYLAWYQQKPGKAPKLLIYAASTLQSGVPSRFSGSGSGTEFTLTISSLQPEDFATYYCQQLSSYPTFGGGTKVEIKR
notes: also called anti-TIGIT H03-12; 39631H03-12
With B1 the IC50 [1] was 0.411 µg/mL and 2.8 nM, the “NK-mediated killing of P815.hCD155 cells (Caspase-3/7 signal)” value [2] was at most 2 fold and the “ADCC EC50, nM (Donor 1005-4464)” value [3] was 0.026 nM. The “ADCC EC50, nM (Donor 1102-7215)” value [3] was 0.1 nM, the “ADCC EC50, nM (Donor 1106-0557)” value [3] was 0.059 nM and the EC50 [4] was 0.0927 µg/mL and 0.6 nM. For the same binder, the EC50 [5] was 0.0852 µg/mL and 0.6 nM, the IC50 [6] was 1.68 µg/mL and the Kd [7] was 0.829 nM and 0.83 nM. It also gave a koff [7] of 0.000133 s⁻¹, a kon [7] of 160000 M⁻¹ s⁻¹ and a Kd (His-tagged human TIGIT) of 4.05 nM. For the same binder, the koff (His-tagged human TIGIT) was 0.00067 s⁻¹, the kon (His-tagged human TIGIT) was 166000 M⁻¹ s⁻¹ and the EC50 [8] was 0.24 µg/mL and 1.6 nM. For the same binder, the IC50 [9] was 0.499 µg/mL, the EC50 [10] was 0.132 µg/mL and 0.8 nM and the “fold median fluorescence over vector-only transfected HEK293 cells” value [11] was 130 fold. B1: no binding (tested: 100 nM antigen) (human TIGIT ECD Y113A); no binding (tested: 100 nM antigen) (human TIGIT ECD T55A); no binding (tested: 100 nM antigen) (human TIGIT ECD Q53A). For the same binder, the binding result (human TIGIT ECD P114G) was “no binding (tested: 100 nM antigen)” and the IC50 [12] was 0.165 µg/mL and 1.1 nM.
